The target in test [1] is T1, human BTLA expressed on cells (human, UniProt Q7Z6A9 31-289). Description: cell-based or functional assay.
Test [2] deals with T1, human BTLA expressed on cells. Description: FACS on 293F cells expressing hBTLA. The method, then: The humanized anti-BTLA antibodies were determined for their binding ability to hBTLA expressed on cells using cell-based flow cytometry (FACS). […] Then the cells were mixed with 50 μL of antibody diluent at different concentrations (initial concentration: 10 μg/mL, 3-fold titration), and incubated at room temperature for 30 minutes. After being washed with an FACS buffer twice, the cells were added with 100 μL of goat anti-human IgG-PE antibody, incubated for 30 minutes away from light, and assayed by FACS after two washes with an FACS buffer. The washed cells were resuspended in 4° C. buffer containing propidium iodide (PI) and 0.02% sodium azide that prevents receptor internalization and analyzed by flow cytometry. Viable cells were gated on the basis of PI positive cells being excluded from the FSC/SSC gate and their geometric mean fluorescence intensity was measured. The data were analyzed using a sigmoidal dose-response model within Prism™ software.
The humanized antibodies hu17, hu18, and hu19 can effectively bind to hBTLA on 293 cells.

The target in test [3] is T2, hBTLA (human BTLA protein coated on plates or coupled to a chip) (human, UniProt Q7Z6A9 31-157, limits assumed).
T2 sequence (looked up): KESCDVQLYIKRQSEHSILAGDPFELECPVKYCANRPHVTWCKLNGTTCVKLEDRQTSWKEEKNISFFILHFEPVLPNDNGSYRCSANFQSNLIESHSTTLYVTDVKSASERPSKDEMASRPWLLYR
Description: ELISA, hBTLA coated at 0.5 µg/mL, anti-human IgG4-HRP detection. The protocol: The binding specificity of the humanized antibodies to hBTLA was determined by conventional ELISA method. A 96-well microplate was coated with 0.5 μg/mL hBTLA and incubated at 37° C. for 60 minutes. The solution in wells was then discarded, and the wells were washed 3 times with washing buffer, and blocked for 60 minutes with PBS containing 2% BSA. After being washed 3 times with washing buffer, the wells were added with gradiently-diluted antibodies, incubated at 37° C. for 60 minutes, and washed 3 times with washing buffer before adding a HRP-labeled mouse anti-human IgG4 secondary antibody diluted at 1:10000. The mixture was incubated at 37° C. for 1 hour, washed three times with washing buffer, and added with 100 μL of TMB substrate solution for color development at room temperature for 30 minutes, then the reaction was stopped with 100 μL of 2M hydrochloric acid solution and the absorbance was read at 450 nm.
The humanized antibodies hu17, hu18, and hu19 can specifically bind to hBTLA.

Test [4] addresses T3, recombinant protein of human BTLA extracellular domain (hBTLA-ECD-FC) (human, UniProt Q7Z6A9 31-157, biotin-labeled in the FACS blocking assays (site not stated)).
T3 construct: extracellular domain; also called BTLA-Fc; biotin-labeled hBTLA; not shown: Fc of the self-constructed HX1-FC expression plasmid
T3 sequence (looked up): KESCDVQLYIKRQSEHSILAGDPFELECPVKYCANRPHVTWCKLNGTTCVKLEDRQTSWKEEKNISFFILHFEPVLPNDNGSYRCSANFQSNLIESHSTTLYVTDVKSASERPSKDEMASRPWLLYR
Description: FACS, blocking of biotin-labeled hBTLA binding to hHVEM-293F cells. The method, then: Then the cells were mixed with previously biotin-labeled hBTLA (1 μg/mL) protein, incubated at 4° C. for 15 minutes, followed by mixing with 50 μL of humanized antibody diluent (initial concentration: 5 μg/mL, 3-fold titration) at different concentrations, and incubating at room temperature for 30 minutes. After being washed with an FACS buffer twice, the cells were added with 100 μL of goat anti-human IgG-PE antibody, incubated for 30 minutes away from light, and assayed by FACS after two washes with an FACS buffer. The washed cells were resuspended in 4° C. buffer containing propidium iodide (PI) and 0.02% sodium azide that prevents receptor internalization and analyzed by flow cytometry. Viable cells were gated on the basis of PI positive cells being excluded from the FSC/SSC gate and their geometric mean fluorescence intensity was measured. The data were analyzed using a sigmoidal dose-response model within Prism™ software.
The […] antibodies hu17, hu18, and hu19 can effectively block the binding of human BTLA to HVEM on the cell surface.

Test [5] addresses T3, recombinant protein of human BTLA …. Description: SPR, Biacore T200, BTLA-Fc amine-coupled to chip, antibody as analyte, 1:1 fit. The method, then:
The assay was carried out using a Biacore T200 instrument (GE Healthcare). Series S CMS chip was loaded on the instrument and the system buffer used was HBS-EP+(10 mM HEPES, pH 7.4, 150 mM NaCl, 3 mM EDTA, 0.05% surfactant P20). The BTLA-Fc antigens were coupled in a chip detection channel: injecting a mixed solution of 400 mM EDC and 100 mM NHS at 10 μL/min for 420 s to activate the surface of the chip, diluting the BTLA-Fc antigens in a 10 mM sodium acetate/acetic acid (pH 5.5) buffer to a final concentration of 20 μg/mL and injecting at 10 μL/min for coupling, and injecting a 1M ethanolamine-hydrochloric acid solution (pH 8.5) at 10 μL/min for 420 s for blocking.
Antibodies were diluted in a 2-fold gradient with Biacore system buffer for a total of 6 concentration points. Concentration gradients were 24 nM, 12 nM, 6 nM, 3 nM, 1.5 nM and 0.75 nM, with 24 nM being a replicate. Data were analyzed using Biacore T200 Evaluation Software (version no. 3.0, GE Healthcare). Data were fitted using a model of 1:1 Binding. The kinetic constants of the binding of the antibodies to the antigens, namely, the association rate constant ka (1/Ms), dissociation rate constant kd (1/s) and the affinity constant kd (M), were obtained by fitting, and the results are shown in Table 8.

A further test concerns the target T4, murine BTLA (murine, UniProt Q7TSA3 30-183, limits assumed).
T4 sequence (looked up): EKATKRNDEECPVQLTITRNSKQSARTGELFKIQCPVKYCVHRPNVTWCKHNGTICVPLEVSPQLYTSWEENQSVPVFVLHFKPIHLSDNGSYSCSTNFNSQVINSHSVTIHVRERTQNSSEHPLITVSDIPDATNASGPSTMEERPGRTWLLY
Nature of the test: sheet shows OD:450nm against Log:ng/mL (ELISA-type readout); the text describes a Fortebio/biosensor assay with BTLA coupled to a chip.

Test [6] addresses recombinant human FcRn (human) (UniProt P55899). Description: SPR, Biacore T200, Fc receptor captured by anti-His antibody, antibody injected.
Test [7] addresses recombinant human FcγRI (CD64) (human) (UniProt P12314). The test is described as above.
In test [8] the target is recombinant human FcγRIIIA (CD16a) V176 (human) (UniProt P08637). The test is described as above.
Sequence of recombinant human FcγRIIIA (CD16a) V176 (human) (P08637 17-208 F176V limits assumed): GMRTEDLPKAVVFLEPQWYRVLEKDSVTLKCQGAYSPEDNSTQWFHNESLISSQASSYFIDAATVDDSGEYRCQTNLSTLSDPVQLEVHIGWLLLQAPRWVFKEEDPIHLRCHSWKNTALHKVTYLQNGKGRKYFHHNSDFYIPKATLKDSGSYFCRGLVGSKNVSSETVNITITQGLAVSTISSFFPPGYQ
Test [9] has the same target. Nature of the test: SPR, Biacore T200, Fc receptor captured by anti-His antibody, antibody injected; IgG4 subtype (hu18), kinetics N/A.

Sequence of recombinant human FcγRI (CD64) (human) (P12314 16-288 limits assumed): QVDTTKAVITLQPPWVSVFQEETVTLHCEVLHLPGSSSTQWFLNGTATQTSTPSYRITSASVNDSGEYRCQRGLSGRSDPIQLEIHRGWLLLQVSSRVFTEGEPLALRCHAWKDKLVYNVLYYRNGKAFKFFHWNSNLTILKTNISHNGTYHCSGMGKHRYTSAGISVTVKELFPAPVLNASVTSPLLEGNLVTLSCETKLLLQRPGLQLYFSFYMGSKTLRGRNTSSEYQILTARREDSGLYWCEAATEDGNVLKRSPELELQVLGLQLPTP
Sequence of recombinant human FcRn (human) (P55899 24-297 limits assumed, form in doubt, chain 1 of 2): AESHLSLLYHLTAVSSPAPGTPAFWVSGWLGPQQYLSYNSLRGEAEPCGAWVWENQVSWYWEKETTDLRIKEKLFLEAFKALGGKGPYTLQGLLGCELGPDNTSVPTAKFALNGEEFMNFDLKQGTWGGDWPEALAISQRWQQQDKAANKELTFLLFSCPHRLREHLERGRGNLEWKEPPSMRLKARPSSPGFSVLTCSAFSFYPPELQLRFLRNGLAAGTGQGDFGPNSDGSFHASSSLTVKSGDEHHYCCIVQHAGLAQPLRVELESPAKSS
Sequence of recombinant human FcRn (human) (chain, as listed by the source limits assumed, form in doubt, chain 2 of 2): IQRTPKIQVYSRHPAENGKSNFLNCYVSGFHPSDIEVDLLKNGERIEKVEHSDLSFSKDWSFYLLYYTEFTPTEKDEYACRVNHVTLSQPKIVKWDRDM

B1: humanized antibody hu17 (antibody, V domains shown)
VH: QVQLVQSGAEVKKPGASVKLSCKASGYNFKHTYAHWVRQAPGQGLEWIGRIDPANGNTKYDPKFQGRATMTADTASNTAYLELSSLRSEDTAVYYCVADHYGSSLLDYWGQGTLVTVSS
VL: DIVMTQTPLSLSVTPGQPASISCKSSQSLLDSDGKTYLNWFQQRPGQSPRRLIYLVSKLDSGVPDRFSGSGSGTDFTLKISRVEAEDVGVYYCWQGTYFPYTFGQGTKLEIK
notes: also called hull [sic]; humanized antibody 17
On to B1, for which the “EC50 (luciferase reporter, T cell activation)” value in [1] was determined as 0.257 µg/mL. Further, the EC50 in test [2] was 0.0967 µg/mL. Moreover, the EC50 in test [3] stood at 0.0063 µg/mL. Besides, the concentration for half-maximal inhibition (IC50) in [4] is 0.143 µg/mL. For the same molecule, in [5], the Kd stood at 0.186 nM, the koff is 0.000116 s⁻¹ and the kon was 624000 M⁻¹ s⁻¹. Besides, in the test with murine BTLA, the binding result is reported as “no binding (tested: 1000 ng/mL)”.

B2: humanized antibody hu18 (antibody, IgG4, V domains shown)
VH: QVQLVQSGAEVKKPGASVKLSCKASGYNFKHTYAHWVRQAPGQGLEWIGRIDPANGNTKYDPKFQGRATMTADTASNTAYLELSSLRSEDTAVYYCVADHYGSSLLDYWGQGTLVTVSS
VL: DVVMTQTPLSLSVTPGQPASISCKSSQSLLDSDGKTYLNWFQQRPGQSPRRLIYLVSKLDSGVPDRFSGSGSGTDFTLKISRVEAEDVGVYYCWQGTYFPYTFGQGTKLEIK
notes: also called JS004; recombinant human anti-BTLA antibody
On to B2, for which, in [1], the “EC50 (luciferase reporter, T cell activation)” value came to 0.277 µg/mL. Also, the figures for the EC50 in [2] and in test [3] were 0.0893 µg/mL and 0.0054 µg/mL, respectively. The IC50 in test [4] was found to be 0.172 µg/mL. Besides, the Kd was 138 nM in test [6], 18.4 nM in test [7], 0.136 nM in [5] and 60200 nM in test [9]. Further, the koff stood at 0.0708 s⁻¹ in test [6], 0.00387 s⁻¹ in test [7] and 8.67e-05 s⁻¹ in test [5]. The kon is 512000 M⁻¹ s⁻¹ in test [6], 210000 M⁻¹ s⁻¹ in test [7] and 639000 M⁻¹ s⁻¹ in test [5]. In test [8], the fold weaker than the control antibody of the IgG1 subtype (hu18-IgG1) turned out to be 400 fold.
